Experimental data taken from patent publication US20220363763A1 (ABL BIO, published 2022).

How the values were obtained:
B7-DC = biological target: T1, B7-DC (human, UniProt Q9BQ51 20-220, limits assumed); assay: ELISA
T1 sequence (looked up): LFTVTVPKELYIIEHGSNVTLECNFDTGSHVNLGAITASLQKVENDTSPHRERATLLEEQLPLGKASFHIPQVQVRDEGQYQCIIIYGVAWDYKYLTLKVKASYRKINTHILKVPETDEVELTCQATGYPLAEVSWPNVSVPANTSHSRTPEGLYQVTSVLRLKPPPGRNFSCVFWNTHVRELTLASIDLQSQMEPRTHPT

B7-2 = biological target: T2, B7-2 (human, UniProt P42081 24-247, limits assumed); assay: ELISA
T2 sequence (looked up): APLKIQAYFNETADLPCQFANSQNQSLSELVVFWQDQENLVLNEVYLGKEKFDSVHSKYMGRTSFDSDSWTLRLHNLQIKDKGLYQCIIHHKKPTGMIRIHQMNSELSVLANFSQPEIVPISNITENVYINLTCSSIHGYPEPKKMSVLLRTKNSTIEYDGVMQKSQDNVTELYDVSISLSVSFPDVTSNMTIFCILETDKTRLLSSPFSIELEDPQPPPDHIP

B7-H2 = biological target: T3, B7-H2 (human, UniProt O75144 19-258, limits assumed); assay: ELISA
T3 sequence (looked up): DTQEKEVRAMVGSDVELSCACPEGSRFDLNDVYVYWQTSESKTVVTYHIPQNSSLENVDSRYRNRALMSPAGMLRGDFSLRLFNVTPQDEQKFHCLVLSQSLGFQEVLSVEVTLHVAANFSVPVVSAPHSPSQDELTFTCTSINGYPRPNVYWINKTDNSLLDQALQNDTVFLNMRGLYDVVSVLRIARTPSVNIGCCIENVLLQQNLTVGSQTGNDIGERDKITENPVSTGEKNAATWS

CD28 = CD28 (human, UniProt P10747 19-152); assay: ELISA
CTLA4 = CTLA4 (human, UniProt P16410 36-161, limits assumed); assay: ELISA
ICOS = biological target: T4, ICOS (human, UniProt Q9Y6W8 21-140, limits assumed); assay: ELISA
T4 sequence (looked up): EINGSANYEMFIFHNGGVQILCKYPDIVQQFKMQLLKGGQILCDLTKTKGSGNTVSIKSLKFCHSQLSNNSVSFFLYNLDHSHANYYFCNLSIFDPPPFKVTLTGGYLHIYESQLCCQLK

BTLA = BTLA (human, UniProt Q7Z6A9 31-157, limits assumed); assay: ELISA
huPD-1 = biological target: T5, huPD-1 (human, UniProt Q15116 25-167, limits assumed, biotin-labeled in the FACS blocking assays); assay: ELISA
T5 construct: also called biotin-labeled huPD-1; Bio-PD1

B7-1 protein = biological target: T6, B7-1 protein (human, UniProt P33681 35-242, limits assumed, biotin-labeled in the blocking assay); assay: ELISA
T6 construct: also called human B7-1; biotin-labeled B7-1
T6 sequence (looked up): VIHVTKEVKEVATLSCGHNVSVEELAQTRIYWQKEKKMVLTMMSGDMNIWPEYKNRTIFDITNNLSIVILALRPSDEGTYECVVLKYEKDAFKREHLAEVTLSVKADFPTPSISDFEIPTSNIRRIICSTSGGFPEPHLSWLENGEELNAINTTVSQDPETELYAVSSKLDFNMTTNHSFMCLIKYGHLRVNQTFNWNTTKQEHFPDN

mouse PD-L1-Fc protein = biological target: T7, mouse PD-L1-Fc protein (mouse, UniProt Q9EP73 19-238, limits assumed); assay: ELISA on coated PD-L1-Fc
T7 construct: not shown: Fc part
Description: (§1) To evaluate the binding of humanized antibodies to huPD-L1, Mouse PD-L1, Rat PD-L1, […], the antibodies were performed for the ELISA testing. Briefly, microtiter plates were coated with human, mouse, rat and rhesus PD-L1-Fc protein at 1 μg/ml in PBS, 100 μl/well at […] overnight, then blocked with […] of 5% BSA. Three-fold dilutions of humanized antibodies starting from 1 μg/ml were added to each well and incubated for 1-2 hours at RT. The plates were washed with PBS/Tween and then incubate with […] antibody conjugated with Horse Radish Peroxidase (HRP) for 1 hour at RT. After washing, the plates were developed with TMB substrate and analyzed by spectrophotometer at OD 450-630 nm. The Hu1210-41 antibody can bind to rhesus PD-L1 with lower affinity and cannot bind to rat and mouse PD-L1 (FIG. 8 & Table 12).

rat PD-L1-Fc protein = rat PD-L1-Fc protein (rat, UniProt D4AE25 19-239); assay: ELISA on coated PD-L1-Fc
Description: as §1

human PD-L1-Fc protein [1] = biological target: T8, human PD-L1-Fc protein (human, UniProt Q9NZQ7 19-239); assay: ELISA on coated human PD-L1-Fc
T8 construct: Coated on ELISA plates; also called huPD-L1; not shown: Fc part
Description: as §1

rhesus PD-L1-Fc protein = biological target: T9, rhesus PD-L1-Fc protein (rhesus, UniProt F6PJN1 19-239); assay: ELISA on coated rhesus PD-L1-Fc
T9 construct: not shown: Fc part
Description: as §1

[2] = biological target: T10, human PD-L1-his taq protein (human, UniProt Q9NZQ7 19-239, limits assumed); assay: SPR Biacore T200, antibody captured, PD-L1-his injected
T10 construct: also called recombinant PD-L1 protein; recombinant human PD-L1; not shown: his tag
Method in brief: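 HL1210-3 mouse mAb was captured via anti-mouse Fc antibody on a CM5 chip, then serially diluted PD-L1-his was injected for 3 min […]. Dissociation was followed for 900 s.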

human PD-L1-Fc protein [3] = biological target: T8, human PD-L1-Fc protein; assay: ELISA on coated human PD-L1-Fc; table row 'Human PD-L1', no unit in the table, x axis Ab(nM); Table 12 of the text prints 0.215 nM
Description: as §1

human PD-L1-Fc protein [4] = biological target: T8, human PD-L1-Fc protein; assay: receptor blocking assay, panel B7-1; blocked ligand biotin-labeled B7-1 protein; by paragraph 296 an ELISA on coated PD-L1-Fc, though the sheet is headed 'Cell based receptor blocking assay'
Method in brief: (§2)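 IC50 values came from the curve of a protein-based receptor blocking ELISA. Wells held human PD-L1-Fc coated at 1 μg/ml in PBS (100 μl/well) overnight at 4° C and were blocked with 5% BSA for 2 hr at 37° C. A 50 μl portion of biotin-labeled human PD-1-Fc or B7-1 protein and 50 μl of a 5-fold antibody dilution series beginning at 100 nM were incubated together for 1 hour at 37° C, and streptavidin-HRP was added for a further 1 hour at 37° C.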

human PD-L1-Fc protein [5] = biological target: T8, human PD-L1-Fc protein; assay: receptor blocking assay, panel PD1; blocked ligand biotin-labeled human PD-1-Fc; by paragraph 296 an ELISA on coated PD-L1-Fc, though the sheet is headed 'Cell based receptor blocking assay'
Method in brief: as §2

T8 sequence (Q9NZQ7 19-239 limits assumed): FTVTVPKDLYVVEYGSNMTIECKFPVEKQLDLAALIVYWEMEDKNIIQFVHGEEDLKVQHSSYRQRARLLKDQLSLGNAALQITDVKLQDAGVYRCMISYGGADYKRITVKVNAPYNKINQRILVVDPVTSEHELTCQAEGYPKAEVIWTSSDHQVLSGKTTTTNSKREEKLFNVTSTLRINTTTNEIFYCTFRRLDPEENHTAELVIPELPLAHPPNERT
T10 sequence (Q9NZQ7 19-239 limits assumed): as above
T5 sequence (Q15116 25-167 limits assumed): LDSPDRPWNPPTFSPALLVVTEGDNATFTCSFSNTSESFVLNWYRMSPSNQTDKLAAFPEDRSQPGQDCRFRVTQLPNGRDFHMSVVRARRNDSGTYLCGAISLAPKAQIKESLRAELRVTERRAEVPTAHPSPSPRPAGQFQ
Sequence of rat PD-L1-Fc protein (D4AE25 entry or part of it limits assumed): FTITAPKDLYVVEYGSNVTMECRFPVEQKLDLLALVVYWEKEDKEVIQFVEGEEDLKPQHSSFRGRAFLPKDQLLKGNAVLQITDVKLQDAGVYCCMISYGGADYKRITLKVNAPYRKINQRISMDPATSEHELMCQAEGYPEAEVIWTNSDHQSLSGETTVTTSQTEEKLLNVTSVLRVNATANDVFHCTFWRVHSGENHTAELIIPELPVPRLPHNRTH
T7 sequence (Q9EP73 19-238 limits assumed): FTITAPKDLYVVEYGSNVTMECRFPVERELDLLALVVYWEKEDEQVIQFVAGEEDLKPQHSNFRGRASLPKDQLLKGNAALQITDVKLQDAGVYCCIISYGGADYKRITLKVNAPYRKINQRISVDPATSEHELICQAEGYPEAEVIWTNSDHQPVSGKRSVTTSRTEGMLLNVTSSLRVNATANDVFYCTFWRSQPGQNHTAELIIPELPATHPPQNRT
Sequence of CTLA4 (P16410 36-161 limits assumed): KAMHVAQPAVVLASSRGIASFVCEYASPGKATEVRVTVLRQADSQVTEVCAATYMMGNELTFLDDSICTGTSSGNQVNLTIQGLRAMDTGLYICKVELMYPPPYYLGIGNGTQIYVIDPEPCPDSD

binding result (B7-DC): no binding
binding result (B7-2): no binding
binding result (B7-H2): no binding
binding result (CD28): no binding
binding result (CTLA4): no binding
binding result (ICOS): no binding
binding result (BTLA): no binding
binding result (huPD-1): no binding
binding result (B7-1 protein): no binding
EC50 (human PD-L1-Fc protein [1]): 0.215 nM
EC50 (rhesus PD-L1-Fc protein): 0.628 nM
Kd [2]: 0.378 nM
koff [2]: 3.46e-05 s⁻¹
kon [2]: 91700 M⁻¹ s⁻¹
EC50 (human PD-L1-Fc protein [3]): 0.21 nM
IC50 (read off the curve) (human PD-L1-Fc protein [4]): ~0.9 nM
IC50 (read off the curve) (human PD-L1-Fc protein [5]): ~1 nM
B1: Hu1210-41 (antibody, V domains shown)
VH: EVQLVESGGGLVQPGGSLRLSCAASGFTFSSYDMSWVRQAPGKSLEWVATISDAGGYIYYSDSVKGRFTISRDNAKNSLYLQMNSLRDEDTAVYICAREFGKRYALDYWGQGTTVTVSS
VL: DIQMTQSPSSLSASVGDRVTITCKASQDVTPAVAWYQQKPGKAPKLLIYSTSSRYTGVPSRFSGSGSGTDFTFTISSLQPEDIATYYCQQHYTTPLTFGQGTKLEIK
notes: Hu1210 VH.4d x Vk.1; human gamma 1 / kappa constant domains; also called H12; Hu1210 VH.4d x Hu1210 Vk.1
binding result (mouse PD-L1-Fc protein): no binding (tested: 1 µg/ml (highest concentration))
binding result (rat PD-L1-Fc protein): no binding (tested: 1 µg/ml (highest concentration))
